Experimental data taken from PMC9482650, “Quantitative fragmentomics allow affinity mapping of interactomes” (Nature Communications, 2022).

Experiments:
Assay in all cases: holdup assay
Design in all cases: key: below the threshold = too weak to quantify, mostly under pKd 3.1 to 4
APBA2_1, Q99767 = biological target: T1, APBA2_1, Q99767
T1 sequence (Q99767 563-664, limits assumed, looked up): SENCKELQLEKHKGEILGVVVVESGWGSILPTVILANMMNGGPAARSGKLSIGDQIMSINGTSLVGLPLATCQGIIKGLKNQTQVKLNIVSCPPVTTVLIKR

ARHGEF11, O15085 = biological target: T2, ARHGEF11, O15085
T2 sequence (O15085 42-136, limits assumed, looked up): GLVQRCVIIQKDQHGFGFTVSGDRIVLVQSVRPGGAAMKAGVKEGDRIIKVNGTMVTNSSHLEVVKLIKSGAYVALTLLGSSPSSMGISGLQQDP

ARHGEF12, Q9NZN5-2 = biological target: ARHGEF12, Q9NZN5-2
Sequence of ARHGEF12, Q9NZN5-2 (Q9NZN5 other isoform, or with tags, fused parts or gaps): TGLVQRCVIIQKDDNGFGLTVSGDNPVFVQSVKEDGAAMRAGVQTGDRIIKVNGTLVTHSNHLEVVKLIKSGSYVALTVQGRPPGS

DLG2_2, Q15700 = biological target: DLG2_2, Q15700
DLG2_3, Q15700 = biological target: DLG2_3, Q15700
GIPC2, Q8TF65 = biological target: GIPC2, Q8TF65
Sequence of GIPC2, Q8TF65 (Q8TF65 112-203): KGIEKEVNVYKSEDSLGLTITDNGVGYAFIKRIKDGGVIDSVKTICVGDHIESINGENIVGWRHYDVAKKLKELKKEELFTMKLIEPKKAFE

GOPC, Q9HD26 = biological target: GOPC, Q9HD26
GRIP1_2, Q9Y3R0 = biological target: T3, GRIP1_2, Q9Y3R0
T3 sequence (Q9Y3R0 145-248, limits assumed, looked up): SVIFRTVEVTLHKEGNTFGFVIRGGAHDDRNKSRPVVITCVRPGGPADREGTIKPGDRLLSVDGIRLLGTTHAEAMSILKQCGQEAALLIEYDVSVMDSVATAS

GRIP1_3, Q9Y3R0 = biological target: T4, GRIP1_3, Q9Y3R0
T4 sequence (Q9Y3R0 247-346, limits assumed, looked up): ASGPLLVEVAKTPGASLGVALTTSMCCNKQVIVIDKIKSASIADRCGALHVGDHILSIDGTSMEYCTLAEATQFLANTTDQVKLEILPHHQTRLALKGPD

GRIP1_4, Q9Y3R0 = biological target: T5, GRIP1_4, Q9Y3R0
T5 sequence (Q9Y3R0 467-571, limits assumed, looked up): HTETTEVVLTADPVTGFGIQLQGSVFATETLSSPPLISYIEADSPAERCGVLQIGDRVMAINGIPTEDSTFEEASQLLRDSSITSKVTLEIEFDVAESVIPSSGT

GRIP2_7, Q9C0E4 = biological target: GRIP2_7, Q9C0E4
Sequence of GRIP2_7, Q9C0E4 (Q9C0E4 934-1023): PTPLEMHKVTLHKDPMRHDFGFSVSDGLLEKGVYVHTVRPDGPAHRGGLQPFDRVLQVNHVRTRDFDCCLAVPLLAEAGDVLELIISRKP

HTRA2, O43464 = biological target: HTRA2, O43464
Sequence of HTRA2, O43464 (O43464 355-458): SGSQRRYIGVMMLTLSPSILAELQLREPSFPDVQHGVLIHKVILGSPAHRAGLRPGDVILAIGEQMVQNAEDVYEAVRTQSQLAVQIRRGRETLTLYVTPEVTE

Inadl_1, Q8NI35 = biological target: Inadl_1, Q8NI35
Sequence of Inadl_1, Q8NI35 (Q8NI35 113-229): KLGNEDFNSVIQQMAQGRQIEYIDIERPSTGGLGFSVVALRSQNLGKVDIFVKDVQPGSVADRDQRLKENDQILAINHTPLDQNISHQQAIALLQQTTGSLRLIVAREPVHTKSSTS

Inadl_3, Q8NI35 = biological target: Inadl_3, Q8NI35
Sequence of Inadl_3, Q8NI35 (Q8NI35 359-469): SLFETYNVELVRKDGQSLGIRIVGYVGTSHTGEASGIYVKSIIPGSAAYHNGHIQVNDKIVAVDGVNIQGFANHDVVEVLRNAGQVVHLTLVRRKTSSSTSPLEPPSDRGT

Inadl_4, Q8NI35 = biological target: Inadl_4, Q8NI35
Sequence of Inadl_4, Q8NI35 (Q8NI35 547-651): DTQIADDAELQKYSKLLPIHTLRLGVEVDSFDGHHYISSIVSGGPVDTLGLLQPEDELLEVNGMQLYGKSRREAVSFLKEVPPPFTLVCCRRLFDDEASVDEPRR

LDB3, O75112 = biological target: LDB3, O75112
Sequence of LDB3, O75112 (O75112 1-94): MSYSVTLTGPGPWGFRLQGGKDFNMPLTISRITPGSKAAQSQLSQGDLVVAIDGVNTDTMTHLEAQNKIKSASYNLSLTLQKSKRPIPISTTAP

LNX1_2, Q8TBB1 = biological target: LNX1_2, Q8TBB1
Sequence of LNX1_2, Q8TBB1 (Q8TBB1 371-470): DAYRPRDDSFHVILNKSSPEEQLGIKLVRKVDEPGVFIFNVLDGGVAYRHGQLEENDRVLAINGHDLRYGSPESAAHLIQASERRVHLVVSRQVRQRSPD

LNX2_2, Q8N448 = biological target: T6, LNX2_2, Q8N448
T6 sequence (Q8N448 334-432, limits assumed, looked up): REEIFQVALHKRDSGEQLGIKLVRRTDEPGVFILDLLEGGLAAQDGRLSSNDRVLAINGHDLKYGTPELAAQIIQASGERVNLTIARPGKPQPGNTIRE

MAST2, Q6P0Q8 = biological target: MAST2, Q6P0Q8
Sequence of MAST2, Q6P0Q8 (Q6P0Q8 1099-1202): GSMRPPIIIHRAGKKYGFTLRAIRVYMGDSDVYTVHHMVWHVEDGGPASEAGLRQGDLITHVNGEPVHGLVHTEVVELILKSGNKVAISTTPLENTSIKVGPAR

MPDZ_12, O75970 = biological target: T7, MPDZ_12, O75970
T7 sequence (O75970 1857-1958, limits assumed, looked up): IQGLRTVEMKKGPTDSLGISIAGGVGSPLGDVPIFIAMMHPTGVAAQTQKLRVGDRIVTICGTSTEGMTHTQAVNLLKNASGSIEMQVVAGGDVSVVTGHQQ

PDLIM1, O00151 = biological target: PDLIM1, O00151
Sequence of PDLIM1, O00151 (O00151 1-87): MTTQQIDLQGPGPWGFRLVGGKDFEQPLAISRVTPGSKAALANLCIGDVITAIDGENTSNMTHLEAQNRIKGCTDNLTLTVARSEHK

PDZD7_3, Q9H5P4 = biological target: T8, PDZD7_3, Q9H5P4
T8 sequence (Q9H5P4 857-944, limits assumed, looked up): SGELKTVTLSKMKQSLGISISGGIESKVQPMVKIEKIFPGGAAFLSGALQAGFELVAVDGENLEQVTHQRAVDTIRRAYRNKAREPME

PICK1, Q9NRD5 = biological target: PICK1, Q9NRD5
Sequence of PICK1, Q9NRD5 (Q9NRD5 17-115): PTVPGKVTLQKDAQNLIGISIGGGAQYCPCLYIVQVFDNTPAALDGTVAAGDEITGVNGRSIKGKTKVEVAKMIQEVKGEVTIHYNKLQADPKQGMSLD

PTPN13_1, Q12923 = biological target: T9, PTPN13_1, Q12923
T9 sequence (Q12923 1088-1188, limits assumed, looked up): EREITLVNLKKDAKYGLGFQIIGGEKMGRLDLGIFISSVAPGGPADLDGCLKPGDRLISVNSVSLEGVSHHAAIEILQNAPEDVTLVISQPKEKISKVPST

SCRIB_1, Q14160 = biological target: SCRIB_1, Q14160
Sequence of SCRIB_1, Q14160 (Q14160 718-814): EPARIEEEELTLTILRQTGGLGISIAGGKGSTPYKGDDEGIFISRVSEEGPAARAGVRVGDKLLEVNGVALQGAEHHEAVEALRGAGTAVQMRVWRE

SIPA1L2, Q9P2F8 = biological target: T10, SIPA1L2, Q9P2F8
T10 sequence (Q9P2F8 945-1036, limits assumed, looked up): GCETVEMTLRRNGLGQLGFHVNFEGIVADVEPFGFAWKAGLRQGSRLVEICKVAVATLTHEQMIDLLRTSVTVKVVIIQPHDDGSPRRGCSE

SNTA1, Q13424 = biological target: T11, SNTA1, Q13424
T11 sequence (Q13424 82-180, limits assumed, looked up): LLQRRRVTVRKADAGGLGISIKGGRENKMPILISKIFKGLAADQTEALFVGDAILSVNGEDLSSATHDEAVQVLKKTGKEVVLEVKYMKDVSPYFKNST

[1] = plain residues with an end cap or a label only (N-terminal biotin on a linker: ahx)
[2] = plain residues with an end cap or a label only (N-terminal biotin on a linker: ado-ado)

TQKFRASTAL [FRMPD1, Q5SYB0]
pKd (APBA2_1, Q99767; [1]): below the threshold
pKd (ARHGEF11, O15085; [1]): 4.38
pKd (ARHGEF12, Q9NZN5-2; [1]): 4.79
pKd (DLG2_2, Q15700; [1]): 4.17
pKd (DLG2_3, Q15700; [1]): below the threshold
pKd (GIPC2, Q8TF65; [1]): below the threshold
pKd (GOPC, Q9HD26; [1]): 4.12
pKd (GRIP1_2, Q9Y3R0; [1]): below the threshold
pKd (GRIP1_3, Q9Y3R0; [1]): below the threshold
pKd (GRIP1_4, Q9Y3R0; [1]): below the threshold
pKd (GRIP2_7, Q9C0E4; [1]): below the threshold
pKd (HTRA2, O43464; [1]): below the threshold
pKd (Inadl_1, Q8NI35; [1]): below the threshold
pKd (Inadl_3, Q8NI35; [1]): below the threshold
pKd (Inadl_4, Q8NI35; [1]): below the threshold
pKd (LDB3, O75112; [1]): below the threshold
pKd (LNX1_2, Q8TBB1; [1]): below the threshold
pKd (LNX2_2, Q8N448; [1]): below the threshold
pKd (MAST2, Q6P0Q8; [1]): 5.36
pKd (MPDZ_12, O75970; [1]): below the threshold
pKd (PDLIM1, O00151; [1]): below the threshold
pKd (PDZD7_3, Q9H5P4; [1]): 3.92
pKd (PICK1, Q9NRD5; [1]): below the threshold
pKd (PTPN13_1, Q12923; [1]): below the threshold
pKd (SCRIB_1, Q14160; [1]): 4.22
pKd (SIPA1L2, Q9P2F8; [1]): below the threshold
pKd (SNTA1, Q13424; [1]): below the threshold

NTLNRKTTPV [CACNG8, Q8WXS5]
pKd (APBA2_1, Q99767; [2]): below the threshold
pKd (ARHGEF11, O15085; [2]): 4.08
pKd (ARHGEF12, Q9NZN5-2; [2]): 4.05
pKd (DLG2_2, Q15700; [2]): 4.61
pKd (DLG2_3, Q15700; [2]): 4.9
pKd (GIPC2, Q8TF65; [2]): below the threshold
pKd (GOPC, Q9HD26; [2]): 3.72
pKd (GRIP1_2, Q9Y3R0; [2]): 3.61
pKd (GRIP1_3, Q9Y3R0; [2]): below the threshold
pKd (GRIP1_4, Q9Y3R0; [2]): below the threshold
pKd (GRIP2_7, Q9C0E4; [2]): below the threshold
pKd (HTRA2, O43464; [2]): below the threshold
pKd (Inadl_1, Q8NI35; [2]): below the threshold
pKd (Inadl_3, Q8NI35; [2]): below the threshold
pKd (Inadl_4, Q8NI35; [2]): below the threshold
pKd (LDB3, O75112; [2]): below the threshold
pKd (LNX1_2, Q8TBB1; [2]): below the threshold
pKd (LNX2_2, Q8N448; [2]): below the threshold
pKd (MAST2, Q6P0Q8; [2]): 4.83
pKd (MPDZ_12, O75970; [2]): below the threshold
pKd (PDLIM1, O00151; [2]): below the threshold
pKd (PDZD7_3, Q9H5P4; [2]): 4.56
pKd (PICK1, Q9NRD5; [2]): 4.17
pKd (PTPN13_1, Q12923; [2]): below the threshold
pKd (SCRIB_1, Q14160; [2]): 3.64
pKd (SIPA1L2, Q9P2F8; [2]): below the threshold
pKd (SNTA1, Q13424; [2]): 3.93

PTPDLPQTRV [KLHDC7A, Q5VTJ3]
pKd (APBA2_1, Q99767; [2]): below the threshold
pKd (ARHGEF11, O15085; [2]): 4.16
pKd (ARHGEF12, Q9NZN5-2; [2]): 4.13
pKd (DLG2_2, Q15700; [2]): below the threshold
pKd (DLG2_3, Q15700; [2]): 3.91
pKd (GIPC2, Q8TF65; [2]): below the threshold
pKd (GOPC, Q9HD26; [2]): 4.89
pKd (GRIP1_2, Q9Y3R0; [2]): below the threshold
pKd (GRIP1_3, Q9Y3R0; [2]): below the threshold
pKd (GRIP1_4, Q9Y3R0; [2]): below the threshold
pKd (GRIP2_7, Q9C0E4; [2]): below the threshold
pKd (HTRA2, O43464; [2]): below the threshold
pKd (Inadl_1, Q8NI35; [2]): below the threshold
pKd (Inadl_3, Q8NI35; [2]): below the threshold
pKd (Inadl_4, Q8NI35; [2]): below the threshold
pKd (LDB3, O75112; [2]): below the threshold
pKd (LNX1_2, Q8TBB1; [2]): below the threshold
pKd (LNX2_2, Q8N448; [2]): below the threshold
pKd (MAST2, Q6P0Q8; [2]): 5.2
pKd (MPDZ_12, O75970; [2]): below the threshold
pKd (PDLIM1, O00151; [2]): below the threshold
pKd (PDZD7_3, Q9H5P4; [2]): 5.04
pKd (PICK1, Q9NRD5; [2]): 4.18
pKd (PTPN13_1, Q12923; [2]): below the threshold
pKd (SCRIB_1, Q14160; [2]): below the threshold
pKd (SIPA1L2, Q9P2F8; [2]): below the threshold
pKd (SNTA1, Q13424; [2]): 4.81

NTANRRTTPV [CACNG2, Q9Y698]
pKd (APBA2_1, Q99767; [2]): below the threshold
pKd (ARHGEF11, O15085; [2]): 3.83
pKd (ARHGEF12, Q9NZN5-2; [2]): 3.93
pKd (DLG2_2, Q15700; [2]): 4.53
pKd (DLG2_3, Q15700; [2]): 4.82
pKd (GIPC2, Q8TF65; [2]): below the threshold
pKd (GOPC, Q9HD26; [2]): below the threshold
pKd (GRIP1_2, Q9Y3R0; [2]): below the threshold
pKd (GRIP1_3, Q9Y3R0; [2]): below the threshold
pKd (GRIP1_4, Q9Y3R0; [2]): below the threshold
pKd (GRIP2_7, Q9C0E4; [2]): below the threshold
pKd (HTRA2, O43464; [2]): below the threshold
pKd (Inadl_1, Q8NI35; [2]): below the threshold
pKd (Inadl_3, Q8NI35; [2]): below the threshold
pKd (Inadl_4, Q8NI35; [2]): below the threshold
pKd (LDB3, O75112; [2]): below the threshold
pKd (LNX1_2, Q8TBB1; [2]): below the threshold
pKd (LNX2_2, Q8N448; [2]): below the threshold
pKd (MAST2, Q6P0Q8; [2]): 4.52
pKd (MPDZ_12, O75970; [2]): below the threshold
pKd (PDLIM1, O00151; [2]): below the threshold
pKd (PDZD7_3, Q9H5P4; [2]): 4.19
pKd (PICK1, Q9NRD5; [2]): below the threshold
pKd (PTPN13_1, Q12923; [2]): below the threshold
pKd (SCRIB_1, Q14160; [2]): 3.49
pKd (SIPA1L2, Q9P2F8; [2]): below the threshold
pKd (SNTA1, Q13424; [2]): 4.1
